Reference: patent US20140005119A1, “COMPOSITIONS AND METHODS FOR INHIBITING THE ACTIVITY OF P110a MUTANT PROTEINS” (Case Western Reserve University, priority 2012, published 2014)

Target: T1, protein interaction between p110α Q546P and IRS1 in Vaco481 CRC cells (Homo sapiens, UniProt P35568)
T1 construct: endogenous in cells; host or cells: Vaco481 CRC cells
T1 sequence (P35568 1-1242): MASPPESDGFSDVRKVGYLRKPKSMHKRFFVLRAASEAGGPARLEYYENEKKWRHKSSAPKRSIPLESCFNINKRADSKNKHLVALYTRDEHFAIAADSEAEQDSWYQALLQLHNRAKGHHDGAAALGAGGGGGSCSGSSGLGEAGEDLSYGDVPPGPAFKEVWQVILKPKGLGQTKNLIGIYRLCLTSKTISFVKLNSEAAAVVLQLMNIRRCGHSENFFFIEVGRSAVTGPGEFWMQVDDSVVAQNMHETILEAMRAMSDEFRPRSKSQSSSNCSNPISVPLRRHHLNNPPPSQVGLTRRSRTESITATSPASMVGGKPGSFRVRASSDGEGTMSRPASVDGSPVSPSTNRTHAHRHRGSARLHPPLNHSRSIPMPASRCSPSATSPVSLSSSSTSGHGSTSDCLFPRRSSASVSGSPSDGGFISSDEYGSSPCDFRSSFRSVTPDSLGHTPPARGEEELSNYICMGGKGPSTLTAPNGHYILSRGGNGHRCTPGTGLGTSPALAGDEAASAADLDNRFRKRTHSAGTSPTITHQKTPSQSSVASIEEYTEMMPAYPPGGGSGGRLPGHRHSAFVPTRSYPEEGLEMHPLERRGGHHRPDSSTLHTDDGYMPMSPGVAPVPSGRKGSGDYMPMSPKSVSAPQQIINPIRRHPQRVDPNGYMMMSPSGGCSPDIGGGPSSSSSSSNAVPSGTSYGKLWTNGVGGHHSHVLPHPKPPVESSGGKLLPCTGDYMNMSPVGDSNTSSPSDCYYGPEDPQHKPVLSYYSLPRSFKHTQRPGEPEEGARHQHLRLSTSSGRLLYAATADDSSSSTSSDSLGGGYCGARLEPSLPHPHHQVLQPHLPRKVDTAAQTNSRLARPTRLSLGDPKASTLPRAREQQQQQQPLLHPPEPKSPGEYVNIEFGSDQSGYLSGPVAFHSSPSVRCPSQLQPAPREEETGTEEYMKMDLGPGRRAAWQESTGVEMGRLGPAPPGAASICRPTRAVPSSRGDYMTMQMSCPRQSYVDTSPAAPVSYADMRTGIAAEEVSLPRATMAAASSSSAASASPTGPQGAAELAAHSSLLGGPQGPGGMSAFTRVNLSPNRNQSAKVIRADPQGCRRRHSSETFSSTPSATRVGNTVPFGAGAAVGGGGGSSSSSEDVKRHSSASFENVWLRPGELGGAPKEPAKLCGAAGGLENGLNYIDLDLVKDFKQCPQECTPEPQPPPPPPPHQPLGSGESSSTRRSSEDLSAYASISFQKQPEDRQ
Test: Co-IP (anti-p110α) from Vaco481 CRC cells treated with stapled mutant peptide
Format: cell-based
Method: FIG. 4(A-F) illustrate: (A) Schematic diagram of linear and stapled WT and mutant peptides derived from p110α (SEQ ID NOs: 5, 6, 7 and 8). (B) Immunoblots of cell lysates immunoprecipitated with beads conjugated with anti-FLAG antibodies and then blotted with the indicated antibodies. Linear or stapled WT and mutant peptide were added into culture medium of the p110α E545K 3×FLAG KI cells for 16 hr. (C) Immunoblots of cell lysates immunoprecipitated with anti-p110α antibodies and then blotted with the indicated antibodies. Vaco481 CRC cells were treated with the stapled mutant peptides at the indicated concentration. (D) Immunoblots of cell lysates blotted with the indicated antibodies. The indicated cell lines were treated with the stapled mutant peptide. (E) Immunoblots of cell lysates blotted with the indicated antibodies. […]
For Co-immunoprecipitation (Co-IP), cells were harvested, washed with PBS, and then lysed in IP buffer (50 mMTris [pH 7.4], 150 mMNaCl, 5 mMEDTA [pH 8.0], 0.5% NP40, 1 mM PMSF, complete Protease Inhibitor Cocktail tablet [Roche]; supplemented with phosphatase inhibitors [1 mM Na3VO4, 20 mM NaF, 0.1 mM b-glycerophosphate, 20 mM sodium pyrophosphate] when necessary). […] Lysates were then cleared by centrifugation (14,000 rpm, 10 min) and protein concentration in supernatants was determined with a BCA protein assay kit (Pierce, Rockford, Ill.). […]

## H2N-SEITKQEK-D^549-FLW-S^553-HRHYC-COOH [stapled mutant peptide]
  disruption of protein interaction between p110α Q546P and IRS1: disrupted
